Experimental data taken from US20080056998A1, “COMPOSITION AND PROCESSES FOR CROSSING THE BLOOD-BRAIN BARRIER WITH POLYPEPTIDES FOR IN VIVO NEUROIMAGING” (The General Hospital Corporation, priority 2006, published 2008).

Experiments:
mouse brain [1] = experiment: ex vivo NIR fluorescence imaging of removed brains and coronal brain slices; type: in vivo; conditions: for ex vivo NIR fluorescent signal of removed brain: 24 hours after injection
Experimental: In another exemplary embodiment of the present invention, fluorescence signals may be observed using exemplary ex vivo imaging performed on the exemplary mouse brains post injection of the exemplary delivery module. Exemplary Ex vivo NIR fluorescence imaging can be performed, e.g., 24 hours after the injection of the exemplary MPAP-Cy5.5 delivery module. Upon sacrificing the mice, each mouse brain can be removed, placed into the exemplary imaging system, and imaged as described above.
Additional observations regarding accumulation of the exemplary delivery module in the brain can be obtained after imaging 1 mm-thick coronal brain slices from the exemplary mouse brain. The exemplary mouse brain can be cut into 1 mm coronal brain sections using a slicing apparatus, such as the RBM-2000C provided by Analytical Scientific Instruments, taken at the following exemplary anteroposterior coordinates from bregma, e.g.: +1.1 mm, +0.1 mm, −0.9 mm, −1.9 mm. Referring to FIG. 6, the exemplary brain slices can then be placed into the exemplary imaging system and imaged 600 as described above.

[2] = test system: neurons, astrocytes, and endothelial cells; experiment: dual-channel fluorescence microscopy of stained brain sections; type: in vivo, mouse
Excerpt: When the exemplary MPAP-Cy5.5 delivery module penetrates the BBB, exemplary dual-channel fluorescence microscopy can be used to observe whether the distribution of the exemplary MPAP-Cy5.5 delivery module in the exemplary brain forms in a cell-type-specific manner. In a further exemplary embodiment of the present invention, an exemplary distribution of the exemplary MPAP-Cy5.5 delivery module within different cell types of a brain can be determined with dual-channel fluorescence microscopy. For example, cryopreserved serial brain sections from mice perfused with the MPAP-Cy5.5 delivery module can be stained for neurons, astrocytes, and endothelial cells using anti-neuronal nuclei antibody (such as, for example, NeuN, monoclonal, from Chemicon International, Temecula, Calif.), anti-glial fibrillary acidic protein antibody (such as, for example, GFAP from Chemicon International, Temecula, Calif.), and anti-CD31 (such as, for example PECAM-1 from BD Biosciences Pharmingen, San Jose, Calif.). The brain sections may be further incubated with corresponding FITC-conjugated secondary antibodies. Further, slides of the brain sections can be mounted in a mounting medium, such as, for example, a Vectashield mounting medium from Vector Laboratories in Burlingame, Calif. Dual-channel fluorescence microscopy in, for example, the Cy5.5 and FITC channels can be performed using, for example, a Nikon Eclipse 50i fluorescence microscope equipped with an appropriate filter set, such as, for example, one provided by Chroma Technology Corporation in Rockingham, Vt. Exemplary images can be acquired using a CCD camera with near-infrared sensitivity (such as, for example, a SPOT 7.4 Slider RTKE from Diagnostic Instruments in Sterling Heights, Mich.).
Although a mechanism for neuronal accumulation remains unclear, it may be possible that preferential targeting into neurons can be related to the higher lypophilicity of neuronal membranes as compared to other cell types. (See, e.g., publications 4 and 6.) Lypophilic peptides may have an advantage to penetrate by adsorptive endocytosis. […] However, some signal may be detectable in the thalamus 904 and the CA3 area of the hippocampus 905.

[3] = HPLC study of perfused brain homogenate; type: in vivo, mouse; conditions: brain perfused 24 hours after intravenous injection
Experimental: In a further exemplary embodiment of the present invention, the mouse brains can be perfused for 24 hours after injection of the delivery module in order to remove intravascular contents. The brain homogenates can then be subjected to exemplary High-Powered Liquid Chromatography (“HPLC”) analysis.
According to an exemplary embodiment of the present invention, n mice (n=4 for example) can be injected intravenously with the delivery module. The mouse brain uptake of the compound can be detected by HPLC after in situ brain perfusion. A perfused brain can be soaked in a HPLC mobile phase solution for 15 minutes and homogenized on ice using a mechanical homogenizer, such as that which is marketed by Virtis in Gardiner, N.Y. A resulting brain residue can be filtered using, for example, 0.45 Am Whatman Nylon filters, lyophilized, and analyzed by 2D-HPLC, such as that whish is marketed by Lachrome Elite, Hitachi in San Jose, Calif. […] In addition, the detected peak can be correlated and matched with the absorbance spectrum profile of Cy5.5 dye. […] Furthermore, the absorbance profile of this peak can correspond to the absorbance profile of Cy5.5 dye at approximately 670 nm 702.
Upon switching the detection wavelength to 220 nm, the retention time peak at 32 min can be detected along with other more polar peaks, such as those associated with brain metabolites.

mouse brain [4] = experiment: in vivo NIR fluorescence imaging after intravenous injection; conditions: mice; for crossing of the BBB / accumulation in the brain: MPAP-Cy5.5 at about 24 hours post-injection, Cy5.5 at any point in time; for NIR fluorescent signal in the brain in vivo: imaging 15 min to 44 hours
Experimental: In the exemplary embodiment of the present invention, for in vivo optical imaging, n mice can be injected intravenously with about 2.5 nmol of the exemplary delivery module MPAP-Cy5.5, Cy5.5 alone, or saline solution. In an exemplary embodiment of the present invention, n=4 for each group of solutions for a total of 12 mice. Imaging can be performed at various times after injection. For example, it may be performed about 15 and 30 minutes after injection, as well as 1, 2, 3, 6, 24 and 44 hours after injection. For exemplary NIR fluorescent imaging, the mice can be placed into an imaging system, for example a Kodak Imaging Station IS2000MM, equipped with a band-pass filter at about 630 nm and a long pass filter at about 700 nm, such as the Chroma Technology Corporation. Exemplary images can be captured with e.g., charge-coupled device (“CCD”) camera embedded in the imaging system and exemplary analyses may be performed using Kodak ID3.6.3 imaging software.
Initially, after an exemplary intravenous injection of the delivery module into an mammal, such as a mouse, there may be no defined fluorescent signal in the brain for a few hours. […] An increase in the emitted light can occur 24 hours after injection 202, and the signal can continue to accumulate up to approximately 2 days or more 203.

brain endothelium = experiment: dual-channel confocal microscopy of brain endothelium; type: in vivo; conditions: intravenous, about 2.5 nmol; sacrificed 1, 3 or 6 hours after injection
Experimental: Further, fluorescence confocal microscopy techniques/systems can be employed to investigate a delivery route of the delivery module after injection. For example, mammals can be injected intravenously with about 2.5 nmol of the exemplary delivery module MPAPCy5.5, perfused, and sacrificed 1, 3 or 6 hours after injection. Brain sections from the sacrificed animals may be frozen. The frozen brain sections can then be stained with, for example, anti-CD31 antibodies followed by FITC-conjugated secondary antibody as described above. Dual-channel confocal microscopy can be performed, for example, in the FITC and Cy5.5 channels. Further, confocal microscopy can be performed using, for example, an Axiovert 200 M inverted microscope (from, e.g., Carl Zeiss, Inc. Thornwood, N.Y.), equipped with an LSM Pascal Vario RGB Laser Module (Arg 458/488/514 nm, HeNe 543 nm, HeNe 633 nm). An exemplary confocal images with a slice thickness of, for example, <0.9 Am can be acquired to produce, for example, FITC and Cy5.5 staining as well as Nomarski optics. Exemplary summation projection of all background-corrected confocal slices can be produced using, for example, LSM 5 Pascal Software. Further, the exemplary confocal images can be color-coded with, for example, green for FITC and red for Cy5.5. […]

| Substance | ex vivo NIR fluorescent signal of removed brain (mouse brain [1]) | distribution in 1 mm coronal brain slices (mouse brain [1]; slices at +1.1, +0.1, −0.9, −1.9 mm from bregma) | accumulation in astrocytes ([2]; GFAP staining) | accumulation in neurons ([2]; NeuN staining) | localization in endothelial cells ([2]; anti-CD31 staining) | distribution over brain regions ([2]; cortex, hippocampus, thalamus) | subcellular localization in neurons ([2]; mouse, in vivo) | degradation in systemic circulation (intact compound in brain homogenate by HPLC) [3] | crossing of the BBB / accumulation in the brain (mouse brain [4]) | time post-injection at which NIR fluorescent signal is detected in the brain (head summit) (mouse brain [4]; about 2.5 nmol) | time up to which the brain signal continues to accumulate (mouse brain [4]; about 2.5 nmol) | NIR fluorescent signal in the brain in vivo (mouse brain [4]; about 2.5 nmol) | accumulation in peripheral tissues / mouse body (mouse brain [4]; kidneys and spleen) | time after injection to pass through the endothelium (brain endothelium) |
| --- | --- | --- | --- | --- | --- | --- | --- | --- | --- | --- | --- | --- | --- | --- |
| C14-βAla-(Arg)7-Cys(Cy5.5)-NH2 [MPAP-Cy5.5] | strong NIR fluorescent signal | distributed randomly throughout the brain parenchyma | may not show widespread accumulation | primarily accumulate in neurons | no significant localization | detected in almost all regions of the brain | predominantly localized within the cell cytoplasm | may likely not degrade in systemic circulation | crossed the BBB and accumulate within the mouse brain | 6 h | ≥ 2 days | progressively increasing NIR fluorescent signal | accumulation of the delivery module in peripheral tissues | ≤ 1 h |
| Cy5.5 [reference compound] | no significant signal beyond background levels |  |  |  |  |  |  |  | no accumulation in the brain |  |  | no signal appears |  |  |
